Drawing on article PMC2363969, “gp100/pmel17 and tyrosinase encode multiple epitopes recognized by Th1-type CD4+T cells” (British Journal of Cancer, 2001), this text covers IC50 for one substance.

In experiment [1] the target is HLA-DRB1*0401 (human). Briefly: radioligand binding.
For experiment [2], the target named is HLA-DRB1*0404 (human). Briefly: radioligand binding.

Usually IC50 stands for the midpoint of a concentration-inhibition curve. A high value points to a need for much substance.

Consider tyrosinase 365-381D (peptide), for which the values for the IC50 in experiment [1] and in experiment [2] were 17 nM and 31 nM, respectively.
